The target in assay [1] is T1, Aβ (1-40) (Homo sapiens, UniProt P05067).
T1 construct: Aβ (1-40) was purchased from Anaspec, Inc. (Fremont, Calif.) as lyophilized powder; purchased Anaspec, Inc. (Fremont, Calif.)
Briefly: Thioflavin T (ThT) fluorescence assay of Aβ aggregation. The settings on record: 28 μM Aβ, 2.8 μM peptide. It is filed as biochemical. How it is done: (§1) Aβ (1-40) was purchased from Anaspec, Inc. (Fremont, Calif.) as lyophilized powder. For dynamic light scattering, ThT fluorescence assay, TEM, NTA measurement and filtration/sedimentation assay, Aβ was dissolved in 50% ACN, re-lyophilized, and reconstituted in 8M urea at 12 mg/mL. Aβ stock was then aliquoted, snap-frozen in ethanol with dry ice, and stored at −80° C. For PICUP and proteolytic fragmentation analysis, lyophilized Aβ was dissolved in prechilled hexafluoroisopropanol (HFIP, Acros Organics, Geel, Belgium), aliquoted, dried and stored at −20° C. as previously described (Cho et al., 2014). Aβ sample was prepared right before use by dissolving dried peptides in 50 mM NaOH and diluting into phosphate-buffered saline (PBSA) (10 mM Na2HPO4/NaH2PO4, 150 mM NaCL and 0.02% NaN3 (pH 7.4)) to 30 μM as previously described (Cho et al., 2014).
ThT stock solutions were prepared in PBSA and filtered through 0.22 μm filter. The concentration of ThT was measured using an extinction coefficient of 26,620 M^−1 cm^−1 at 416 nm and the stock solution was diluted to 10 μM in PBSA prior to the measurement. Aβ alone (28 μM) and with peptides (2.8 μM) or mTTR (2.8 μM) were prepared in PBSA and incubated for 48 hr at 37° C. After 1, 5, 24 and 48 hr of incubation, 10 μL of each sample was mixed with 130 μL of 10 μM ThT and analyzed. ThT fluorescence emission was measured using a QuantaMaster spectrofluometer (PTI, Birmingham, N.J.), with excitation at 440 nm and emission spectra recorded from 460 to 500 nm. Three serial spectra were averaged for each sample and the background signal of ThT in PBSA was subtracted from the averaged data. Fluorescence intensity at a wavelength of 480 nm was compared.

The target of a further assay is T2, Aβ (Homo sapiens, UniProt P05067).
T2 construct: Amyloid-beta (Aβ or Abeta) denotes peptides of 36-43 amino acids
Briefly: Enzyme-linked immunoassay of Aβ binding to immobilized CG3-biotin in presence of serum proteins. The settings on record: Aβ 1, 3 or 5 μg/mL in PBS with 10% or 30% FBS.

The target of assay [2] is T1, Aβ (1-40). Briefly: Transmission electron microscopy of Aβ aggregates. As to conditions: 48 h at 37° C., 28 μM Aβ, 2.8 μM peptide. It is filed as biochemical. The protocol:
as §1
Aβ alone (28 μM) or with peptides (G16 or CG3 at 2.8 μM) were prepared in PBSA and incubated for 48 hr at 37° C. A drop of sample was placed on a pioloform-coated grid and stained with methylamine tungstate stain. Images were taken with a Philips CM120 scanning transmission electron microscope (FEI Corp., Eindhoven, The Netherlands).

Where no end group is shown, it is not given here. [ ]: non-standard residue; d: D form.

Take “SKVVT^DPPRYTIAALLSPYSYSQ [CG3] (chain 1 SKVVT[dP]PRYTIAALLSPYSYSQ; chain 2 SKVVT[dP]PRYTIAALLSPYSYSQ; also: head-to-tail to a chain's N/C-terminus) [cyclic 22-mer of TTR residues 104-123 grafted onto DPro-Pro template]”: the entries for the “ThT fluorescence intensity of Aβ with peptide” value in the assay with Aβ (1-40) [1] (after 5 hr) and in the assay with Aβ (1-40) [1] (after 24 hr) were “remained low” and “fluorescence still remained low”, respectively. Besides, in the assay with Aβ, the “binding of Aβ to immobilized peptide” value is “serum proteins do not interfere with Aβ binding”. Further, in the assay with Aβ (1-40) [2], the “morphology of Aβ aggregates by TEM” value is given as “strikingly lower density of aggregates”.

(Values after patent US9809627B2, “Cyclized transthyretin peptide and methods of use therefor” (Wisconsin Alumni Research Foundation, priority 2014, dated 2017).)
